T1: IL-10R1-Fc (UniProt Q13651 22-235, limits assumed)
T1 sequence (looked up): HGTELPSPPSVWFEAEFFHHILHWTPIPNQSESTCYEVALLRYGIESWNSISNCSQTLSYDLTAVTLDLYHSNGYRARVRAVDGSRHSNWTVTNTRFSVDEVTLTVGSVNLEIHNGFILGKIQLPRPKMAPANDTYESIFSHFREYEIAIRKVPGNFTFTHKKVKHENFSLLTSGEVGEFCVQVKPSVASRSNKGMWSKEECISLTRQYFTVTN

T2: IL-10R2-Fc/His (UniProt Q08334 20-220, limits assumed)
T2 sequence (looked up): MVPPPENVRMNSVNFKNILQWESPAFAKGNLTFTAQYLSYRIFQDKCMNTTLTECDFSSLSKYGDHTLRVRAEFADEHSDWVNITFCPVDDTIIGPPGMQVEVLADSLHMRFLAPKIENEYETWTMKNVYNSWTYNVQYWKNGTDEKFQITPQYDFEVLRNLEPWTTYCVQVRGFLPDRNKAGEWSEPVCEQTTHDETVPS


How the values were obtained:
IL-10R1-Fc = molecular target: T1, IL-10R1-Fc; assay: ELISA, IL-10R1-Fc coated
IL-10R2-Fc/His = molecular target: T2, IL-10R2-Fc/His; assay: ELISA, IL-10R2-Fc/His coated

Binder | Binding recovery (>60%) (IL-10R1-Fc) [%] | Binding recovery (>60%) (IL-10R2-Fc/His) [%] | Decreased fold of binding to ligand after Conjugating with S48 (IL-10R2-Fc/His) [fold] | Decreased fold of binding to ligand after Conjugating with S48 (IL-10R1-Fc) [fold]
IL-10 Arg24Cys-R4-20 (ligand, human, UniProt P22301 19-178, looked up, R4-20 on Cys 24, mature) SPGQGTQSENSCTHFPGNLPNMLCDLRDAFSRVKTFFQMKDQLDNLLLKESLLEDFKGYLGCQALSEMIQFYLEEVMPQAENQDPDIKAHVNSLGENLKTLRLRLRRCHRFLPCENKSKAVEQVKNAFNKLQEKGIYKAMSEFDIFINYIEAYMTMKIRN | 90 | 98.1 |  | 
IL-10 Arg104Cys-R4-20 (ligand, human, UniProt P22301 19-178, looked up, R4-20 on Cys 104, mature) SPGQGTQSENSCTHFPGNLPNMLRDLRDAFSRVKTFFQMKDQLDNLLLKESLLEDFKGYLGCQALSEMIQFYLEEVMPQAENQDPDIKAHVNSLGENLKTLRLCLRRCHRFLPCENKSKAVEQVKNAFNKLQEKGIYKAMSEFDIFINYIEAYMTMKIRN | 98.5 | 96.6 |  | 
IL-10 Asn18Cys-S48 (ligand, human, UniProt P22301 19-178, looked up, S48 on Cys 18, mature) SPGQGTQSENSCTHFPGCLPNMLRDLRDAFSRVKTFFQMKDQLDNLLLKESLLEDFKGYLGCQALSEMIQFYLEEVMPQAENQDPDIKAHVNSLGENLKTLRLRLRRCHRFLPCENKSKAVEQVKNAFNKLQEKGIYKAMSEFDIFINYIEAYMTMKIRN |  |  | 4 | 12
IL-10 Asn21Cys-S48 (ligand, human, UniProt P22301 19-178, looked up, S48 on Cys 21, mature) SPGQGTQSENSCTHFPGNLPCMLRDLRDAFSRVKTFFQMKDQLDNLLLKESLLEDFKGYLGCQALSEMIQFYLEEVMPQAENQDPDIKAHVNSLGENLKTLRLRLRRCHRFLPCENKSKAVEQVKNAFNKLQEKGIYKAMSEFDIFINYIEAYMTMKIRN |  |  | 6 | 7
IL-10 Asn21Cys-R4-18 (ligand, human, UniProt P22301 19-178, looked up, R4-18 on Cys 21, mature) SPGQGTQSENSCTHFPGNLPCMLRDLRDAFSRVKTFFQMKDQLDNLLLKESLLEDFKGYLGCQALSEMIQFYLEEVMPQAENQDPDIKAHVNSLGENLKTLRLRLRRCHRFLPCENKSKAVEQVKNAFNKLQEKGIYKAMSEFDIFINYIEAYMTMKIRN | 99.7 | 85.3 |  | 
IL-10 Arg107Cys-S48 (ligand, human, UniProt P22301 19-178, looked up, S48 on Cys 107, mature) SPGQGTQSENSCTHFPGNLPNMLRDLRDAFSRVKTFFQMKDQLDNLLLKESLLEDFKGYLGCQALSEMIQFYLEEVMPQAENQDPDIKAHVNSLGENLKTLRLRLRCCHRFLPCENKSKAVEQVKNAFNKLQEKGIYKAMSEFDIFINYIEAYMTMKIRN |  |  | 5 | 3
IL-10 Asn97Cys-R4-18 (ligand, human, UniProt P22301 19-178, looked up, R4-18 on Cys 97, mature) SPGQGTQSENSCTHFPGNLPNMLRDLRDAFSRVKTFFQMKDQLDNLLLKESLLEDFKGYLGCQALSEMIQFYLEEVMPQAENQDPDIKAHVNSLGECLKTLRLRLRRCHRFLPCENKSKAVEQVKNAFNKLQEKGIYKAMSEFDIFINYIEAYMTMKIRN | 94.5 | 80.7 |  | 
IL-10 Arg107Cys-R4-20 (ligand, human, UniProt P22301 19-178, looked up, R4-20 on Cys 107, mature) SPGQGTQSENSCTHFPGNLPNMLRDLRDAFSRVKTFFQMKDQLDNLLLKESLLEDFKGYLGCQALSEMIQFYLEEVMPQAENQDPDIKAHVNSLGENLKTLRLRLRCCHRFLPCENKSKAVEQVKNAFNKLQEKGIYKAMSEFDIFINYIEAYMTMKIRN | 99.5 | 84 |  | 
IL-10 Arg104Cys-S48 (ligand, human, UniProt P22301 19-178, looked up, S48 on Cys 104, mature) SPGQGTQSENSCTHFPGNLPNMLRDLRDAFSRVKTFFQMKDQLDNLLLKESLLEDFKGYLGCQALSEMIQFYLEEVMPQAENQDPDIKAHVNSLGENLKTLRLCLRRCHRFLPCENKSKAVEQVKNAFNKLQEKGIYKAMSEFDIFINYIEAYMTMKIRN |  |  | 6 | 3
IL-10 Arg32Cys-S48 (ligand, human, UniProt P22301 19-178, looked up, S48 on Cys 32, mature) SPGQGTQSENSCTHFPGNLPNMLRDLRDAFSCVKTFFQMKDQLDNLLLKESLLEDFKGYLGCQALSEMIQFYLEEVMPQAENQDPDIKAHVNSLGENLKTLRLRLRRCHRFLPCENKSKAVEQVKNAFNKLQEKGIYKAMSEFDIFINYIEAYMTMKIRN |  |  | 9 | 13
IL-10 Asn18Cys-R4-18 (ligand, human, UniProt P22301 19-178, looked up, R4-18 on Cys 18, mature) SPGQGTQSENSCTHFPGCLPNMLRDLRDAFSRVKTFFQMKDQLDNLLLKESLLEDFKGYLGCQALSEMIQFYLEEVMPQAENQDPDIKAHVNSLGENLKTLRLRLRRCHRFLPCENKSKAVEQVKNAFNKLQEKGIYKAMSEFDIFINYIEAYMTMKIRN | 92.3 | 99.8 |  | 
IL-10 Arg32Cys-R4-7 (ligand, human, UniProt P22301 19-178, looked up, R4-7 on Cys 32, mature) SPGQGTQSENSCTHFPGNLPNMLRDLRDAFSCVKTFFQMKDQLDNLLLKESLLEDFKGYLGCQALSEMIQFYLEEVMPQAENQDPDIKAHVNSLGENLKTLRLRLRRCHRFLPCENKSKAVEQVKNAFNKLQEKGIYKAMSEFDIFINYIEAYMTMKIRN | 90.4 | 89.6 |  | 
IL-10 Arg24Cys-S48 (ligand, human, UniProt P22301 19-178, looked up, S48 on Cys 24, mature) SPGQGTQSENSCTHFPGNLPNMLCDLRDAFSRVKTFFQMKDQLDNLLLKESLLEDFKGYLGCQALSEMIQFYLEEVMPQAENQDPDIKAHVNSLGENLKTLRLRLRRCHRFLPCENKSKAVEQVKNAFNKLQEKGIYKAMSEFDIFINYIEAYMTMKIRN |  |  | 9 | 33

More lines, now with the values ahead:

Binding recovery (>60%) (IL-10R1-Fc) [%] | Binding recovery (>60%) (IL-10R2-Fc/His) [%] | Decreased fold of binding to ligand after Conjugating with S48 (IL-10R2-Fc/His) [fold] | Decreased fold of binding to ligand after Conjugating with S48 (IL-10R1-Fc) [fold] | Binder
 |  | 3 |  | IL-10 Phe15Cys-S48 (ligand, human, UniProt P22301 19-178, looked up, S48 on Cys 15, mature) SPGQGTQSENSCTHCPGNLPNMLRDLRDAFSRVKTFFQMKDQLDNLLLKESLLEDFKGYLGCQALSEMIQFYLEEVMPQAENQDPDIKAHVNSLGENLKTLRLRLRRCHRFLPCENKSKAVEQVKNAFNKLQEKGIYKAMSEFDIFINYIEAYMTMKIRN
86.5 | 79 |  |  | IL-10 His90Cys-R4-19 (ligand, human, UniProt P22301 19-178, looked up, R4-19 on Cys 90, mature) SPGQGTQSENSCTHFPGNLPNMLRDLRDAFSRVKTFFQMKDQLDNLLLKESLLEDFKGYLGCQALSEMIQFYLEEVMPQAENQDPDIKACVNSLGENLKTLRLRLRRCHRFLPCENKSKAVEQVKNAFNKLQEKGIYKAMSEFDIFINYIEAYMTMKIRN
 |  | 8 | 4 | IL-10 Thr100Cys-S48 (ligand, human, UniProt P22301 19-178, looked up, S48 on Cys 100, mature) SPGQGTQSENSCTHFPGNLPNMLRDLRDAFSRVKTFFQMKDQLDNLLLKESLLEDFKGYLGCQALSEMIQFYLEEVMPQAENQDPDIKAHVNSLGENLKCLRLRLRRCHRFLPCENKSKAVEQVKNAFNKLQEKGIYKAMSEFDIFINYIEAYMTMKIRN
 |  | 4 | 5 | IL-10 Asn97Cys-S48 (ligand, human, UniProt P22301 19-178, looked up, S48 on Cys 97, mature) SPGQGTQSENSCTHFPGNLPNMLRDLRDAFSRVKTFFQMKDQLDNLLLKESLLEDFKGYLGCQALSEMIQFYLEEVMPQAENQDPDIKAHVNSLGECLKTLRLRLRRCHRFLPCENKSKAVEQVKNAFNKLQEKGIYKAMSEFDIFINYIEAYMTMKIRN
 |  | 5 | 3 | IL-10 Asp25Cys-S48 (ligand, human, UniProt P22301 19-178, looked up, S48 on Cys 25, mature) SPGQGTQSENSCTHFPGNLPNMLRCLRDAFSRVKTFFQMKDQLDNLLLKESLLEDFKGYLGCQALSEMIQFYLEEVMPQAENQDPDIKAHVNSLGENLKTLRLRLRRCHRFLPCENKSKAVEQVKNAFNKLQEKGIYKAMSEFDIFINYIEAYMTMKIRN
 |  | 4 | 3 | IL-10 Lys119Cys-S48 (ligand, human, UniProt P22301 19-178, looked up, S48 on Cys 119, mature) SPGQGTQSENSCTHFPGNLPNMLRDLRDAFSRVKTFFQMKDQLDNLLLKESLLEDFKGYLGCQALSEMIQFYLEEVMPQAENQDPDIKAHVNSLGENLKTLRLRLRRCHRFLPCENKSCAVEQVKNAFNKLQEKGIYKAMSEFDIFINYIEAYMTMKIRN
 |  | 6 | 36 | IL-10 Thr35Cys-S48 (ligand, human, UniProt P22301 19-178, looked up, S48 on Cys 35, mature) SPGQGTQSENSCTHFPGNLPNMLRDLRDAFSRVKCFFQMKDQLDNLLLKESLLEDFKGYLGCQALSEMIQFYLEEVMPQAENQDPDIKAHVNSLGENLKTLRLRLRRCHRFLPCENKSKAVEQVKNAFNKLQEKGIYKAMSEFDIFINYIEAYMTMKIRN
 |  | 3 | 3 | IL-10 Lys130Cys-S48 (ligand, human, UniProt P22301 19-178, looked up, S48 on Cys 130, mature) SPGQGTQSENSCTHFPGNLPNMLRDLRDAFSRVKTFFQMKDQLDNLLLKESLLEDFKGYLGCQALSEMIQFYLEEVMPQAENQDPDIKAHVNSLGENLKTLRLRLRRCHRFLPCENKSKAVEQVKNAFNCLQEKGIYKAMSEFDIFINYIEAYMTMKIRN
 |  | 6 | 5 | IL-10 Met22Cys-S48 (ligand, human, UniProt P22301 19-178, looked up, S48 on Cys 22, mature) SPGQGTQSENSCTHFPGNLPNCLRDLRDAFSRVKTFFQMKDQLDNLLLKESLLEDFKGYLGCQALSEMIQFYLEEVMPQAENQDPDIKAHVNSLGENLKTLRLRLRRCHRFLPCENKSKAVEQVKNAFNKLQEKGIYKAMSEFDIFINYIEAYMTMKIRN
 |  | 7 | 8 | IL-10 His90Cys-S48 (ligand, human, UniProt P22301 19-178, looked up, S48 on Cys 90, mature) SPGQGTQSENSCTHFPGNLPNMLRDLRDAFSRVKTFFQMKDQLDNLLLKESLLEDFKGYLGCQALSEMIQFYLEEVMPQAENQDPDIKACVNSLGENLKTLRLRLRRCHRFLPCENKSKAVEQVKNAFNKLQEKGIYKAMSEFDIFINYIEAYMTMKIRN

Reference: patent US20230158141A1 (YAFEI SHANGHAI BIOLOG MEDICINE SCIENCE AND TECHNOLOGY, published 2023)
